No end group written: not given here.
Molecular target: T1, SpyCatcher002‐mut (H26Q H62Q), cleaved with TEV protease
T1 construct: Second-generation SpyCatcher (SC002) redesigned with H26Q and H62Q; also called SC1m; SCm; source: recombinant, purified; not shown: HisTag, N-terminal, cleaved
Experiment: LC-MS of the covalent adduct; 25 μM each in 20 mM HEPES, pH 7.4, room temperature, injected after 5 min; isopeptide-bonded ST/SC adduct detected by MS; repeated with Cu2+ without effect on adduct formation
Settings: both partners purified

T1 sequence (chain, as listed by the source): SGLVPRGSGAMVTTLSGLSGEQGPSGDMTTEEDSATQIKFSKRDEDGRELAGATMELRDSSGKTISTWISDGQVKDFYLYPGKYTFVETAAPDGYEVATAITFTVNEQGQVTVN

B1: ATCUN(GSH)‐SpyTag002 (peptide)
peptide: GSHVPTIVMVDAYKRYK
notes: SpyTag002 peptide with an N-terminal GSH ATCUN copper site; also called ST‐A1; ST; source: synthetic peptide (solid‐phase peptide synthesis, RP‐HPLC)
- binding result: binds

B2: ATCUN(DAH)‐SpyTag002 (peptide)
peptide: DAHVPTIVMVDAYKRY-NH2
notes: SpyTag002 peptide with an N-terminal DAH ATCUN copper site; lacks the last lysine and ends with an amidated tyrosine; also called ST‐A2; ST; source: synthetic peptide (solid‐phase peptide synthesis, RP‐HPLC)
- binding result: binds
